Test system: MS2 coat protein
Experiment: apparent KD of MS2 coat protein; designed switch direction (-1 OFF switch, 1 ON switch): -1; higher = weaker reporter binding
Summary of the method: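 Designed RNA switches with common flanks were transcribed on Illumina chips by stalled E. coli RNA polymerase and titrated with SNAP-549-labelled MS2 coat protein, from 0.7 or 1.5 nM doubling to 3 µM, in Tris-HCl pH 7.5 buffer with KCl, MgCl2, BSA, DTT, tRNA and Tween-20. Steps lasted 0.8–1.5 h (lowest) to 10–20 min (highest). Titrations ran without input, with 200 uM small-molecule ligand, or with an oligonucleotide input. Normalised cluster fluorescence was curve-fitted, and apparent KD is the per-design median over clusters.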

[1] = input ligand: microRNA oligo, concentration not stated
[2] = Eterna round: R95, input ligand: microRNA oligo, concentration not stated
[3] = Eterna round: R95, input ligand: FMN 200 uM
[4] = Eterna round: R95, input ligand: none

Sequence: GCCGUAAAUGUGAGGAUAUACCUAUGGAUACAUAGGUAGAAGGCACAUGAGGAUCACCCAUGUCCUUAAUCGGC [Eli BMX r4m3] (Eterna round: R97, puzzle: Brourd's mod of Exclusion 4)
- apparent KD of MS2 coat protein (input ligand: FMN 200 uM): 730 nM
- apparent KD of MS2 coat protein (input ligand: none): 409 nM

Sequence: GACAUGAGGAUCACCCAUGUAACCAGGGCAAUUCUCGAAAUGGAGGAUAUGAAUCUUAAUUAGGUUCAGAAGGCCAGAAGGCUA [Eternabot solution 29] (Eterna round: R96, puzzle: Exclusion NG 3)
- apparent KD of MS2 coat protein (input ligand: FMN 200 uM): 784 nM
- apparent KD of MS2 coat protein [1]: 194 nM
- apparent KD of MS2 coat protein (input ligand: none): 206 nM

Sequence: AAAGCGUCAGGAUAUCCAAUAUAUGACAUGAGGAUCACCCAUGUUUCCACUCGUACCUCCGGAGAAGGGACAAAUA [Ex5 #86] (Eterna round: R97, puzzle: Exclusion 5)
- apparent KD of MS2 coat protein (input ligand: FMN 200 uM): 32.5 nM
- apparent KD of MS2 coat protein (input ligand: none): 38.1 nM

Sequence: ACUUAUUGAGGAUAUACAGAUUAUUACAUGAGGAUCACCCAUGUUCUUCAAUGUAUAUAUGUAGAAGGCAGAAGUA [Mat - Exclusion 5 - JL Mod - D14] (Eterna round: R97, puzzle: Exclusion 5)
- apparent KD of MS2 coat protein (input ligand: FMN 200 uM): 317 nM
- apparent KD of MS2 coat protein (input ligand: none): 88.9 nM

Sequence: AAUAACAUGUUGAUCAAAUACAUGAGGAUCACCCAUGUAUGCUUUUUGUUCGAUAAGAUCAACUAAUAAUAAUAAUA [StovNew/1-C] (Eterna round: R97, puzzle: Sensor, turn-off variant 1)
- apparent KD of MS2 coat protein (input ligand: FMN 200 uM): 12.2 nM
- apparent KD of MS2 coat protein (input ligand: none): 12.6 nM

Sequence: CUUUUGUGAGGAUAUCAGUAGUAAAAAAAUAAAAUUACUACUGAGAAGGCACAUGAGGAUCACCCAUGUUCCUC [EX4 344: Super Stable 44] (Eterna round: R96, puzzle: Exclusion 4)
- apparent KD of MS2 coat protein (input ligand: FMN 200 uM): 343 nM
- apparent KD of MS2 coat protein [1]: 36.3 nM
- apparent KD of MS2 coat protein (input ligand: none): 42.4 nM

Sequence: ACAUAUGUUAGAGGAUCCUACAUGAGGAUCACCCAUGUCGGUAUAAAACUCACACGGUCAACGCUUUUUGUUCGCUA [Eternabot (L1) Solution 2] (Eterna round: R97, puzzle: Sensor, turn-off variant 1)
- apparent KD of MS2 coat protein (input ligand: FMN 200 uM): 30.5 nM
- apparent KD of MS2 coat protein (input ligand: none): 34.7 nM

Sequence: CUCAUGUGAGGAUAUAGUGCGUCUUCUAUUAUUAUUGAGUACUAGAAGGCACAUGAGGAUCACCCAUGUAGCAC [Ex4 - 3 - 45] (Eterna round: R96, puzzle: Exclusion 4)
- apparent KD of MS2 coat protein [1]: 29.2 nM
- apparent KD of MS2 coat protein (input ligand: none): 57.6 nM

Sequence: AAAAAAAGACAAGAGGAGAUUCGUCUUAAAAAUCCUCAAACAUGAGGAUCACCCAUGUAAAAUGAUCGAAAGAUCAA [Mat - Sensor v2 - ver2 - JL mod - D39] (Eterna round: R96, puzzle: Sensor v2, turn-off variant 2)
- apparent KD of MS2 coat protein (input ligand: FMN 200 uM): 25.7 nM
- apparent KD of MS2 coat protein [1]: 24 nM
- apparent KD of MS2 coat protein (input ligand: none): 29.2 nM

Sequence: AUACAGGAAGGAUAUACAUGAGGAUCACCCAUGUAGGAAAACCUACCAAAAGACCCAAGUAGAAGGUCCGAUAC [jl-ex3-4.74 ViennaUCT mod] (Eterna round: R97, puzzle: Exclusion 3)
- apparent KD of MS2 coat protein (input ligand: FMN 200 uM): 21.8 nM
- apparent KD of MS2 coat protein (input ligand: none): 19.4 nM

Sequence: AGCGGGUUAGGAUAUACCUGGGUAUGAAAAGCCUAACCUCGACAUGAGGAUCACCCAUGUAGAAGGAGCUCGGC [Eternabot (Original) Solution 3] (Eterna round: R97, puzzle: Exclusion 2)
- apparent KD of MS2 coat protein (input ligand: FMN 200 uM): 91 nM
- apparent KD of MS2 coat protein (input ligand: none): 36.9 nM

Sequence: UUAUAUAGAGUGAGGAUAUGCUGGUCCUUGGAUCAGCAGAAGGCACAUGAGGAUCACCCAUGUAAAAUAAUAUU [Mat - Exclusion 4 - JL Mod - D39] (puzzle: Brourd's mod of Exclusion 4)
- apparent KD of MS2 coat protein [2]: 21.1 nM

Sequence: GAGAUGUGAGGAUAUCUAGACCAUGGAAAAGCCACGGUCCGAGAGAAGGCACAUGAGGAUCACCCAUGUGAUGA [Quedte] (puzzle: Exclusion 4)
- apparent KD of MS2 coat protein [2]: 43.7 nM

Sequence: ACUUAUUGAGGAUAUACAUAGAUUUACAUGAGGAUCACCCAUGUUCCUCUAUGUAUAUAUGUAGAAGGCAGAAGAA [JL-ex5-4.32 Malcolm mod] (Eterna round: R97, puzzle: Exclusion 5)
- apparent KD of MS2 coat protein (input ligand: FMN 200 uM): 26.7 nM
- apparent KD of MS2 coat protein (input ligand: none): 15.7 nM

Sequence: UUGGUUGUGGUAGGAUAUCCGUUGGAAACCUUCGGAGAAGGACCACAGUCACUGGGUCUUUGUCUGGUGGACGGUGAAAACCGU [pwkr exNG1 F6.22] (Eterna round: R96, puzzle: Exclusion NG 1)
- apparent KD of MS2 coat protein (input ligand: FMN 200 uM): 138 nM
- apparent KD of MS2 coat protein [1]: 498 nM
- apparent KD of MS2 coat protein (input ligand: none): 730 nM

Sequence: AUAUAUAGUGUGAGGAUAUGCUGGUCCUUGGAUCAGCAGAAGGCACAUGAGGAUCACCCAUGUAGUUUAUUUUG [Mat - Exclusion 4 - JL Mod - D6] (puzzle: Brourd's mod of Exclusion 4)
- apparent KD of MS2 coat protein [2]: 17.3 nM

Sequence: UUUUAACAUGAGGAUCACCCAUGUGAGGAUAUCGAAAUUUAUAUUAAUAUUUAUAAUACGAGAAGGCACAUUUU [JMF 54] (puzzle: Exclusion 1)
- apparent KD of MS2 coat protein [2]: 84.4 nM

Sequence: UUUUGAAAGUGAGGAUAUGACAUGAGGAUCACCCAUGUAAAGGGAGUUGACUAUAUAGAAAGAUAUCAGAAGGCACAAAUGUUU [JR_ExcNG2_Sub002] (Eterna round: R96, puzzle: Exclusion NG 2)
- apparent KD of MS2 coat protein (input ligand: FMN 200 uM): 839 nM
- apparent KD of MS2 coat protein [1]: 237 nM
- apparent KD of MS2 coat protein (input ligand: none): 321 nM

Sequence: ACACAGCAAGGAUAUACAUGAGGAUCACCCAUGUGGUGGCAGUUACGGUAGGACUAGUGUAGAAGGUGCAGUGG [EX3 #30] (Eterna round: R97, puzzle: Exclusion 3)
- apparent KD of MS2 coat protein (input ligand: FMN 200 uM): 487 nM
- apparent KD of MS2 coat protein (input ligand: none): 668 nM

Sequence: GUGAGGCCAGUGAGGAUAUGUGUACAACUACGUGCAUAGAAGGCACAUGAGGAUCACCCAUGUGAAUUCCCAGG [Eternabot (L1) Solution 65] (Eterna round: R97, puzzle: Brourd's mod of Exclusion 4)
- apparent KD of MS2 coat protein (input ligand: FMN 200 uM): 14.7 nM
- apparent KD of MS2 coat protein (input ligand: none): 14.4 nM

Sequence: UCAGUUAUGCGAGGAUAUCGACCUUUCCUCUUAACAUGAGGAUCACCCAUGUGCUAAUCCUUCAACGAGAAGGCGCUCAAACUC [JR_ExcNG2_Sub070] (Eterna round: R96, puzzle: Exclusion NG 2)
- apparent KD of MS2 coat protein (input ligand: FMN 200 uM): 260 nM
- apparent KD of MS2 coat protein [1]: 170 nM
- apparent KD of MS2 coat protein (input ligand: none): 209 nM

Sequence: GGUCGUCAAGUCAGGAUAUCGUUUGGUCGGUGUAACGAGAAGGGACAUGAGGAUCACCCAUGUCGUCUCAUCAG [Ex4 #28] (Eterna round: R97, puzzle: Brourd's mod of Exclusion 4)
- apparent KD of MS2 coat protein (input ligand: FMN 200 uM): 29.3 nM
- apparent KD of MS2 coat protein (input ligand: none): 20.4 nM

Sequence: AGGGAUAAAGGAUAUACAUGAGGAUCACCCAUGUUGAGGAAAGUGAGAGGUGGCGAUAGUAGAAGGUUAGGUGG [JR_Exclu3_Sub083] (puzzle: Exclusion 3)
- apparent KD of MS2 coat protein [2]: 79.9 nM

Sequence: CAAAAGCUAGGAUAUUGAGGUGGGCACAUGAGGAUCACCCAUGUGGACCUCGAGCCUACGCAAGAAGGAGUAAAAU [Rioren] (puzzle: Exclusion 5)
- apparent KD of MS2 coat protein [3]: 18 nM
- apparent KD of MS2 coat protein [2]: 13.1 nM
- apparent KD of MS2 coat protein [4]: 17 nM

Sequence: GGAGCGGCAGGAUAUACAUGAGGAUCACCCAUGUAAAGAAGGGUAAGAAACCACCUCGGUAGAAGGGCCAGGAG [AK-MS2ROC-r4-exclusion3-10] (Eterna round: R97, puzzle: Exclusion 3)
- apparent KD of MS2 coat protein (input ligand: FMN 200 uM): 191 nM
- apparent KD of MS2 coat protein (input ligand: none): 94.5 nM

Sequence: GCCCGGCGUGUAGGAUAUGGUUCCGUUUCGGUUCCAGAAGGACAUGAGGAUCACCCAUGUGCCUGUCGUCGGUCGUCACCGGGC [salish99_ExNG1_r04_401] (Eterna round: R96, puzzle: Exclusion NG 1)
- apparent KD of MS2 coat protein (input ligand: FMN 200 uM): 11.1 nM
- apparent KD of MS2 coat protein [1]: 9.87 nM
- apparent KD of MS2 coat protein (input ligand: none): 12.4 nM

Sequence: CUGAGUUAAGGAUAUACAUGAGGAUCACCCAUGUAAAGUAGCUUGCGUACAGGCAGAUGUAGAAGGUAAUUCGG [Mod of JL 8 - Jieux - Exclusion 3] (Eterna round: R97, puzzle: Exclusion 3)
- apparent KD of MS2 coat protein (input ligand: FMN 200 uM): 37.2 nM

Sequence: AGCUGUGGCCGAGGAUAUCUCAUAGUCCCAACCGAAAUAUAAUCGGACAUGAGGAUCACCCAUGUAGAGAAGGCGGUCUCAGCA [Eli eng2 - 071] (Eterna round: R96, puzzle: Exclusion NG 2)
- apparent KD of MS2 coat protein (input ligand: FMN 200 uM): 115 nM
- apparent KD of MS2 coat protein [1]: 40.7 nM
- apparent KD of MS2 coat protein (input ligand: none): 151 nM

Sequence: AAUAAUUGUGACUUGGGUGACAUGAGGAUCACCCAUGUCACAAGCUUGUUGCUCGUCUUAUAAUUAACCCAUGUCAC [LRO Sensor-off var1-25 mod of Stov1-13-A1 by Brourd] (Eterna round: R97, puzzle: Sensor, turn-off variant 1)
- apparent KD of MS2 coat protein (input ligand: FMN 200 uM): 48.1 nM
- apparent KD of MS2 coat protein (input ligand: none): 40.9 nM

Sequence: CCACGACAUGAGGAUCACCCAUGUGAGGAUAUGACCUGAAAAGCGUGAGCAGUUUGUAUCAGAAGGCGCGUGGG [salish99_ex1_r4_066] (Eterna round: R97, puzzle: Exclusion 1)
- apparent KD of MS2 coat protein (input ligand: FMN 200 uM): 54.4 nM
- apparent KD of MS2 coat protein (input ligand: none): 67.4 nM

Sequence: AAUUUAUGAGGAUAUACAGUGUAAAACAUGAGGAUCACCCAUGUUCUUCAAUUAGUAUUUGUAGAAGGCAUAUGUA [JR_Ex5_Sub095] (Eterna round: R97, puzzle: Exclusion 5)
- apparent KD of MS2 coat protein (input ligand: FMN 200 uM): 17.2 nM
- apparent KD of MS2 coat protein (input ligand: none): 17.1 nM

Sequence: AAGAAACAUGAGGAUCACCCAUGUGAGGAUAUGAGCAAGAAAAGAAAAGAAAGAAGAAUCAGAAGGCACAAAGG [salish99-ex1_r3_050] (puzzle: Exclusion 1)
- apparent KD of MS2 coat protein [3]: 6990 nM
- apparent KD of MS2 coat protein [2]: 1.1 nM
- apparent KD of MS2 coat protein [4]: 49.3 nM

Sequence: CCCAGUUACUGAGGAUAUCCUACAUGAGGAUCACCCAUGUAAUAAAUGAGGAUUUCGGGUGUCUAGGAGAAGGCAGGGAUAGGC [Ostracism 23 - Jieux - Exclusion NG 2] (Eterna round: R96, puzzle: Exclusion NG 2)
- apparent KD of MS2 coat protein (input ligand: FMN 200 uM): 84.9 nM
- apparent KD of MS2 coat protein [1]: 28.8 nM
- apparent KD of MS2 coat protein (input ligand: none): 50.3 nM

Sequence: GUGCGGUGAGGAUAUACGUAGGUGAAAAUCUGUGUGUUCCUACAUGAGGAUCACCCAUGUAGAAGGCAUGGCAC [LRO-Excl2-13] (puzzle: Exclusion 2)
- apparent KD of MS2 coat protein [2]: 90.5 nM
